1 substance from patent US20130217633A1 can be followed below.

In assay [1] the target is wild type Bcl-2 (overexpressed in WEHI7.2 cells) (UniProt P10415). The assay can be described thus: cell-based or functional assay.
The target in assay [2] is Bcl-2 of primary chronic lymphocytic leukemia (CLL) cells (human) (UniProt P10415). The assay can be described thus: cell-based or functional assay.
Bcl-2 of primary chronic lymphocytic leukemia (CLL) cells (human), sequence (P10415 whole entry): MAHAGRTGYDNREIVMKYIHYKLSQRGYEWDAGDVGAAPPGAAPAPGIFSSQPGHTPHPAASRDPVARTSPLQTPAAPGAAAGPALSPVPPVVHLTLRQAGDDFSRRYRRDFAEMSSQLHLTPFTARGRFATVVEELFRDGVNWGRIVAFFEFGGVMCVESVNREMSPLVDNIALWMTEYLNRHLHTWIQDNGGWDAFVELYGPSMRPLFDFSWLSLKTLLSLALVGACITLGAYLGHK

wild type Bcl-2 (overexpressed in WEHI7.2 cells), sequence (P10415 whole entry): as above

As for “TAT-IDP (IP3R-derived peptide fused with the cell-penetrating peptide of HIV TAT)”, in assay [1], the Ca^2+ spikes per cell (single cell Ca2+ imaging, Bcl-2-positive WEHI7.2 cells) (Ca^2+ spikes per cell) is 6; the percentage of Bcl-2-positive WEHI7.2 cells with a sustained pattern of Ca^2+ oscillations (three or more peaks) is 36%; the percentage of Bcl-2-positive WEHI7.2 cells with one or two isolated Ca^2+ oscillations was determined as 22%. The percentage of primary CLL cells with Ca2+ elevation in assay [2] amounted to 26%.
